Test results reported in paper PMC2173431 (The Journal of Cell Biology, 2003).
Like-named read-outs stand apart in the source and are kept apart here. Values belong to the binder of their own block, whether it stands above or below them.

How the values were obtained:
GST-AIP [1] = target: T1, GST-AIP (human, UniProt O00170 1-330); experiment: pull-down
T1 sequence (looked up): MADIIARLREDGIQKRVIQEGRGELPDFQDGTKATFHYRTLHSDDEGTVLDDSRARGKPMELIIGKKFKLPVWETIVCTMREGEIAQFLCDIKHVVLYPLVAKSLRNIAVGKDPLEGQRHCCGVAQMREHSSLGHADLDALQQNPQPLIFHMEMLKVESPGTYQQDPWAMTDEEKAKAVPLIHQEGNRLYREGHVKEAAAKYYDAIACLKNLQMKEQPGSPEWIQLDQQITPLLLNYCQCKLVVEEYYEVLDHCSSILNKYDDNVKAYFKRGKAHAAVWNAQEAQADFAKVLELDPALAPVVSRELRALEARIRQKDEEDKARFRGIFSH

GST-AIP [2] = target: T1, GST-AIP; experiment: pull-down; remark: listed apart in the source

- binding result (GST-AIP [1]): binds
B1: MBP-cT20 (domain or fragment, human, UniProt Q15388 25-145, looked up)
chain: DRKRRSDPNFKNRLRERRKKQKLAKERAGLSKLPDLKDAEAVQKFFLEEIQLGEELLAQGEYEKGVDHLTNAIAVCGQPQQLLQVLQQTLPPPVFQMLLTKLPTISQRIVSAQSLAEDDVE

- binding result (GST-AIP [2]): binds
Binder: QRIVSAQSLAEDDVE [Tom20C[131–145] peptide]

- binding result (GST-AIP [2]): binds
Binder: MLFNLRILLNNAAFRNGHNFMVRNFRCGQPLQ [synthetic presequence peptide of human pOTC]
